Assay [1] addresses α1B-2α2bβ1-3 human neuronal calcium channel (human) (UniProt Q02641). In words: Bmax of 125I-ω-CgTx GVIA binding, against α1B-2β1-3.
For assay [2] the target is unchanged. In words: Bmax of 125I-ω-CgTx GVIA binding, against α1B-2α2bβ1-2.
Assay [3] concerns the target α1B-1α2bβ1-2 human neuronal calcium channel (human) (UniProt Q02641). The description is as above.
Assay [4] concerns the target α1B-1α2bβ1-3 human neuronal calcium channel (human) (UniProt Q02641). In words: Bmax of 125I-ω-CgTx GVIA binding, against α1B-1β1-3.
Assay [5] deals with α1B-1β1-2 human neuronal calcium channel subunit combination (human) (UniProt Q02641). In words: saturation binding of 125I-ω-CgTx GVIA to transfected HEK293 cells.
Assay [6] deals with α1B-2α2bβ1-2 human neuronal calcium channel (human) (UniProt Q02641). The description is as above.
Assay [7] deals with α1B-1α2bβ1-3 human neuronal calcium channel (human) (UniProt Q02641). The description is as above.
Assay [8] concerns the target α1B-2β1-3 human neuronal calcium channel subunit combination (human) (UniProt Q02641). The assay is described as above.
Assay [9] deals with α1B-2β1-2 human neuronal calcium channel subunit combination (human) (UniProt Q02641). The description is as above.
For assay [10], the target named is α1B-2α2bβ1-3 human neuronal calcium channel (human) (UniProt Q02641). Described as above.
Assay [11] has as its target α1B-1β1-3 human neuronal calcium channel subunit combination (human) (UniProt Q02641). Described as above.
Assay [12] addresses α1B-1α2bβ1-2 human neuronal calcium channel (human) (UniProt Q02641). Described as above.
The target of assay [13] is α1B-1β1-2 human neuronal calcium channel subunit combination (human) (UniProt Q02641). Put plainly: Bmax of 125I-ω-CgTx GVIA binding, against α1B-1 alone.
The target in assay [14] is α1B-1β1-3 human neuronal calcium channel subunit combination (human) (UniProt Q02641). The assay is described as above.
The target in assay [15] is α1B-1α2bβ1-2 human neuronal calcium channel (human) (UniProt Q02641). In words: Bmax of 125I-ω-CgTx GVIA binding, against α1B-1β1-2.
Assay [16] addresses α1B-1α2bβ1-3 human neuronal calcium channel (human) (UniProt Q02641). In words: Bmax of 125I-ω-CgTx GVIA binding, against α1B-2α2bβ1-3.
Assay [17] deals with α1B-2α2bβ1-2 human neuronal calcium channel (human) (UniProt Q02641). In words: Bmax of 125I-ω-CgTx GVIA binding, against α1B-2β1-2.
In assay [18] the target is α1B-1α2bβ1-3 human neuronal calcium channel (human) (UniProt Q02641). In words: Bmax of 125I-ω-CgTx GVIA binding, against α1B-1α2bβ1-2.
Assay [19] concerns the target α1B-1α2bβ1-2 human neuronal calcium channel (human) (UniProt Q02641).

Data on 2 substances can be found in patent US6528630.

What is called Kd is the concentration at which binding is half-saturated.

Read-outs that look alike come from different tables or passages of the source.

α1B-2α2bβ1-3 human neuronal calcium channel (human), sequence (Q02641 whole entry): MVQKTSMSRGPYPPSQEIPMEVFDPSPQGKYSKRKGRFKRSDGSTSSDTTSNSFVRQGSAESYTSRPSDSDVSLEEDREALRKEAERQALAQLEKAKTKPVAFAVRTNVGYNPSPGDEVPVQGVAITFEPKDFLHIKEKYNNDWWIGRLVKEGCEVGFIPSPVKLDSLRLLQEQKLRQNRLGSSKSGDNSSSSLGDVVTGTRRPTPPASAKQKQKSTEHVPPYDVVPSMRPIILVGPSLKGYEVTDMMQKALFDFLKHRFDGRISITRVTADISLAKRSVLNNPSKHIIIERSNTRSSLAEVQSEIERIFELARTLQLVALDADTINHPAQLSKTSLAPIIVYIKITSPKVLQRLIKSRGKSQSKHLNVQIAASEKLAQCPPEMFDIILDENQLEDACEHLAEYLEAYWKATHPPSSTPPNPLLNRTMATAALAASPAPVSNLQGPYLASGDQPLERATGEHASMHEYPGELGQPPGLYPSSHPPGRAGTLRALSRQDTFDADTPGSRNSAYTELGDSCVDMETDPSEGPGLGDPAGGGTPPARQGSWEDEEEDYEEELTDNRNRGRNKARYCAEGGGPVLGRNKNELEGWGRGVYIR
α1B-2α2bβ1-2 human neuronal calcium channel (human), sequence (Q02641 whole entry): as above
α1B-1α2bβ1-3 human neuronal calcium channel (human), sequence (Q02641 whole entry): as above
α1B-1β1-2 human neuronal calcium channel subunit combination (human), sequence (Q02641 whole entry): as above
α1B-1β1-3 human neuronal calcium channel subunit combination (human), sequence (Q02641 whole entry): as above
α1B-1α2bβ1-2 human neuronal calcium channel (human), sequence (Q02641 whole entry): as above
125I-ω-CgTx GVIA, sequence (P01522 46-72 limits assumed): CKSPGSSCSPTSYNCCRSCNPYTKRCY
α1B-2β1-3 human neuronal calcium channel subunit combination (human), sequence (Q02641 whole entry): as the sequence (Q02641 whole entry) above
α1B-2β1-2 human neuronal calcium channel subunit combination (human), sequence (Q02641 whole entry): as above

Consider “125I-ω-CgTx GVIA (from UniProt P01522 46-72) (peptide)”, for which the fold change of surface receptor density in assay [1] is 13 fold; in [4], 10 fold; in [15] it was 8 fold; in assay [17], 9 fold. In addition, the fold change of binding capacity in [2] and in assay [18] was 2 fold in each case. The fold change of binding sites per cell in assay [3] and in [16] was 2.5 fold in each case. Besides, the Bmax stood at 5760 sites/cell in assay [5]; 19400 sites/cell in assay [6]; 91000 sites/cell in [7]; 2940 sites/cell in assay [8]; 2130 sites/cell in assay [9]; 37700 sites/cell in assay [10]. The Bmax in assay [11] was 8730 sites/cell; in [12], 45300 sites/cell. Besides, the Kd came out at 0.0179 nM in [5]; 0.053 nM in [6]; 0.0532 nM in assay [7]; 0.0222 nM in assay [8]; 0.0164 nM in [9]; 0.0443 nM in assay [10]. In addition, the dissociation constant Kd in assay [11] was 0.0179 nM; in assay [12], 0.0549 nM. For the same substance, the fold change of surface binding in assay [13] worked out at 8 fold; in assay [14], 10 fold.
As to “ω-CgTx GVIA (from UniProt P01522 46-72) (peptide)”, in assay [19], the dissociation constant Kd was 0.0546 nM and the binding capacity (Bmax) (sites per cell) stood at 28700.
